Experimental findings from US20250263481A1 are described below.

As a reminder, the Kd is the free concentration of one partner at which half of the binding sites on the other are occupied at equilibrium, for simple one-to-one binding. By koff is commonly meant the rate constant with which the complex falls apart. A higher koff goes with a short-lived complex. A word on the kon: it is the second-order rate constant of association. A lower kon goes with slow association. The EC50 (read off the curve) is the concentration at which the effect is half-maximal. The low end stands for a more potent agent, the high end for a less potent agent.

Test [1] has as its target recombinant huCLDN18.2-Fc (human). In words: KinExA 4000, equilibrium in solution, antibody constant, huCLDN18.2-Fc titrated. (Kinetic exclusion samples the free partner from a solution-phase mixture.)
For test [2], the target named is His-tagged human Claudin-18.2 (human). In words: SPR, Biacore 8K, antibody captured by anti-human IgG (Fc), His-tagged human Claudin-18.2 as analyte. On the technique in general: In SPR one partner is held on a chip, and binding of the other changes the refractive index at the surface.
Test [3] deals with human CLDN18.2 expressed on cells (human). Description: cell-based or functional assay.
The target is the same in test [4]. In words: flow cytometry (geometric mean, Alexa Fluor 647 anti-human IgG Fc secondary) on CLDN18.2-expressing 293T cells. For orientation: Flow cytometry measures light scatter and fluorescence of single cells or particles in a stream.

Changes are numbered by the printed parent chain.

B1: YL-G2-B (antibody, human IgG1, kappa)
heavy: EVQLQQSGPELEKPGASVKISCKASGYSFTGYKMNWVKQSNGKSLEWIGNIDPYYGGTTYNQKFKGKATLTVDKSSSTAYMQLKSLTSEDSAVYYCARYGKGNTMDYWGQGTSVTVSSASTKGPSVFPLAPSSKSTSGGTAALGCLVKDYFPEPVTVSWNSGALTSGVHTFPAVLQSSGLYSLSSVVTVPSSSLGTQTYICNVNHKPSNTKVDKRVEPKSCDKTHTCPPCPAPELVGGPSVFLLPPKPKDTLMISRTPEVTCVVVDVSHEDPEVKFNWYVDGVEVHNAKTKPPEEQYNSTLRVVSVLTVLHQDWLNGKEYKCKVSNKALPAPIEKTISKAKGQPREPQVYTLPPSREEMTKNQVSLTCLVKGFYPSDIAVEWESNGQPENNYKTTPLVLDSDGSFFLYSKLTVDKSRWQQGNVFSCSVMHEALHNHYTQKSLSLSPGK
light: DIVMTQSPSSLTVTAGEKVTMSCKSSQSLLNSGNQKNYLTWYQQRPGQPPKLLIYWASTRESGVPVRFTGSGSGTDFTLTISSVQAEDLAVYYCQNAYIYPLTFGTGTKLELKRTVAAPSVFIFPPSDEQLKSGTASVVCLLNNFYPREAKVQWKVDNALQSGNSQESVTEQDSKDSTYSLSSTLTLSKADYEKHKVYACEVTHQGLSSPVTKSFNRGEC
Consider B1, for which, in test [1], the Kd was 1.7 nM. In test [2], the Kd is 2.05 nM, the koff stood at 0.0014 s⁻¹ and the kon worked out at 686000 M⁻¹ s⁻¹.

B2: YL-G2-C (antibody, human IgG1, kappa)
heavy: QIQLVQSGPELRKPGETVKISCKASGFPFTTDGMSWVKQAPGKGLKWMGWINTYSGVPTYADDFKGRVAFSLETSASTAYLQIKNLKNEDTATYFCARFRRGNALDNWGQGTSVTVSSASTKGPSVFPLAPSSKSTSGGTAALGCLVKDYFPEPVTVSWNSGALTSGVHTFPAVLQSSGLYSLSSVVTVPSSSLGTQTYICNVNHKPSNTKVDKRVEPKSCDKTHTCPPCPAPELVGGPSVFLLPPKPKDTLMISRTPEVTCVVVDVSHEDPEVKFNWYVDGVEVHNAKTKPPEEQYNSTLRVVSVLTVLHQDWLNGKEYKCKVSNKALPAPIEKTISKAKGQPREPQVYTLPPSREEMTKNQVSLTCLVKGFYPSDIAVEWESNGQPENNYKTTPLVLDSDGSFFLYSKLTVDKSRWQQGNVFSCSVMHEALHNHYTQKSLSLSPGK
light: B1 light with R45K, V66D, V91I, A97N, I99F, T106A, K109R
B2: in test [1], the equilibrium dissociation constant (Kd) is 3.8 nM. In test [2], this molecule registered a Kd of 1.11 nM, a koff of 0.000591 s⁻¹ and a kon of 532000 M⁻¹ s⁻¹.

B3: YL-G2-D (antibody, human IgG1, kappa)
heavy: QLQQSGPELEKPGASVKISCKASGYSFTGYKMNWVKQSNGESLEWIGNIDPYYGDTTYTQKFKGKATFTVDTSSSTAYMQLKSLTSEDSAVYFCARYNRGNTMDYWGQGTSVTVSSASTKGPSVFPLAPSSKSTSGGTAALGCLVKDYFPEPVTVSWNSGALTSGVHTFPAVLQSSGLYSLSSVVTVPSSSLGTQTYICNVNHKPSNTKVDKRVEPKSCDKTHTCPPCPAPELVGGPSVFLLPPKPKDTLMISRTPEVTCVVVDVSHEDPEVKFNWYVDGVEVHNAKTKPPEEQYNSTLRVVSVLTVLHQDWLNGKEYKCKVSNKALPAPIEKTISKAKGQPREPQVYTLPPSREEMTKNQVSLTCLVKGFYPSDIAVEWESNGQPENNYKTTPLVLDSDGSFFLYSKLTVDKSRWQQGNVFSCSVMHEALHNHYTQKSLSLSPGK
light: B1 light with M21L, T75A, Y93F, I99F, K113R
In the case of B3, the Kd in test [1] stood at 6.4 nM. In test [2], this molecule registered a Kd of 1.02 nM, a koff of 0.000722 s⁻¹ and an on-rate constant (kon) of 707000 M⁻¹ s⁻¹.

B4: reference mAb (IMAB362, Ganymed) (antibody, INN chains, looked up, V domains shown)
VH: QVQLQQPGAELVRPGASVKLSCKASGYTFTSYWINWVKQRPGQGLEWIGNIYPSDSYTNYNQKFKDKATLTVDKSSSTAYMQLSSPTSEDSAVYYCTRSWRGNSFDYWGQGTTLTVSS
VL: DIVMTQSPSSLTVTAGEKVTMSCKSSQSLLNSGNQKNYLTWYQQKPGQPPKLLIYWASTRESGVPDRFTGSGSGTDFTLTISSVQAEDLAVYYCQNDYSYPFTFGSGTKLEIKR
As to B4, in test [3], the ADCC on KATOIII CLDN18.2 cells, LDH: EC50 (run A) stood at 0.12 nM; the ADCC on KATOIII CLDN18.2 cells, LDH: EC50 (run B) came to 0.22 nM; the ADCC on KATOIII CLDN18.2 cells, LDH: EC50 (run C) was 0.27 nM; the ADCC on KATOIII CLDN18.2 cells, LDH: max (% cytotoxity) (run A) worked out at 27.9%. Also, in test [3], the ADCC on KATOIII CLDN18.2 cells, LDH: max (% cytotoxity) (run B) stood at 24.5%; the ADCC on KATOIII CLDN18.2 cells, LDH: max (% cytotoxity) (run C) is 24.5%; the ADCC on NCI-N87 CLDN18.2 cells, LDH: EC50 (run A) worked out at 0.057 nM; the ADCC on NCI-N87 CLDN18.2 cells, LDH: EC50 (run B) came to 0.082 nM. In test [3], this molecule displayed an ADCC on NCI-N87 CLDN18.2 cells, LDH: EC50 (run C) of 0.1 nM; an ADCC on NCI-N87 CLDN18.2 cells, LDH: max (% cytotoxity) (run A) of 26.1%; an ADCC on NCI-N87 CLDN18.2 cells, LDH: max (% cytotoxity) (run B) of 22.1%; an ADCC on NCI-N87 CLDN18.2 cells, LDH: max (% cytotoxity) (run C) of 21.1%. In test [3], this molecule showed a CDC on CT26 CLDN18.2 cells, LDH: EC50 (run A) of 11.5 nM; a CDC on CT26 CLDN18.2 cells, LDH: EC50 (run B) of 10.7 nM; a CDC on CT26 CLDN18.2 cells, LDH: EC50 (run C) of 11.9 nM; a CDC on CT26 CLDN18.2 cells, LDH: max (% cytotoxity) (run A) of 72.5%. In test [3], this molecule registered a CDC on CT26 CLDN18.2 cells, LDH: max (% cytotoxity) (run B) of 54.7%; a CDC on CT26 CLDN18.2 cells, LDH: max (% cytotoxity) (run C) of 51.6%; a CDC on KATOIII CLDN18.2 cells, LDH: EC50 (run A) of 38.1 nM; a CDC on KATOIII CLDN18.2 cells, LDH: EC50 (run B) of 22.7 nM. Moreover, in test [3], the CDC on KATOIII CLDN18.2 cells, LDH: EC50 (run C) is 27.5 nM; the CDC on KATOIII CLDN18.2 cells, LDH: max (% cytotoxity) (run A) worked out at 29.7%; the CDC on KATOIII CLDN18.2 cells, LDH: max (% cytotoxity) (run B) turned out to be 46%; the CDC on KATOIII CLDN18.2 cells, LDH: max (% cytotoxity) (run C) came to 34.9%. For the same molecule, in test [4], the EC50 (read off the curve) is 0.8 µg/mL.
